Data taken from article PMC4640189.
Several values for one entry are separate records, joined by “and”; a condition that tells them apart may be missing. Identical values can stand only once.

Target: CARD-deleted NLRC4 (mouse) (UniProt Q3UP24)
Assay: cryo-EM structure

blades of the disk (one of them taken to be NAIP2): 11 blades and 12 blades and 10 blades
Substance: CARD-deleted NLRC4 (from UniProt Q3UP24 1-1024) (domain or fragment)
